According to patent US20160130362A1 (Genmab, published 2016):

B1: -024 (antibody, human IgG1, V domains shown)
VH: EVQLVQSGAEVKKPGESLKISCKGSGYSFSNYWIGWVRQMPGKGLEWMGIIYPHDSDARYSPSFQGQVTFSADKSISTAYLQWSSLKASDTAMYYCARHVGWGSRYWYFDLWGRGTLVTVSS
VL: EIVLTQSPATLSLSPGERATLSCRASQSVSSYLAWYQQKPGQAPGLLIYDASNRASGIPARFSGSGSGTDFTLTISSLEPEDFAVYYCQQRSNWPLTFGGGTKVEIK
notes: Human monoclonal IgG1 antibody; The recombinant form was cloned into pConG1f0.4 (human IgG1 constant region) and pConKappa0.4 (kappa constant region); also called antibody -024
B2: -005 (antibody, human IgG1, V domains shown)
VH: EVQLLESGGGLVQPGGSLRLSCAVSGFTFNSFAMSWVRQAPGKGLEWVSAISGSGGGTYYADSVKGRFTISRDNSKNTLYLQMNSLRAEDTAVYFCAKDKILWFGEPVFDYWGQGTLVTVSS
VL: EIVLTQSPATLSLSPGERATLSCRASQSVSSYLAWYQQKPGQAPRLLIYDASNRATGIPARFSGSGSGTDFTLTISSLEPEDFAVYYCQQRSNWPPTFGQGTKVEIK
B3: -003 (antibody, human IgG1, V domains shown)
VH: not shown
VL: DIQMTQSPSSLSASVGDRVTITCRASQGISSWLAWYQQKPEKAPKSLIYAASSLQSGVPSRFSGSGSGTDFTLTISSLQPEDFATYYCQQYNSYPRTFGQGTKVEIK
notes: Human monoclonal IgG1 antibody; The recombinant form was cloned into pConG1f0.4 (human IgG1 constant region) and pConKappa0.4 (kappa constant region); FITC-labelled in some assays; also called antibody -003; HuMab -003

How the values were obtained:
[1] = biological target: T1, human CD38 on cells (CHO-CD38 cells, Daudi-luc cells, fresh multiple myeloma tumor cells) (human, UniProt P28907 1-300); assay: cell-based or functional assay
[2] = biological target: T1, human CD38 on cells (CHO-CD38 cells, …); assay: cell-based or functional assay; remark: listed apart in the source
[3] = biological target: His-CD38 (His-tagged extracellular domain of human CD38) (human, UniProt P28907 43-300); assay: cell-based or functional assay
[4] = biological target: T2, cynomolgus monkey CD38 (on lymphoid tissue, lymphocytes and monocytes) (cynomolgus monkey, UniProt Q5VAN0 1-301); assay: immunohistochemistry on frozen cynomolgus tissue sections
T2 construct: whole, on cells; also called cynomolgus CD38

[5] = biological target: T1, human CD38 on cells (CHO-CD38 cells, …); assay: flow cytometry on fresh MM tumor cells, FITC-labelled antibody
[6] = biological target: T1, human CD38 on cells (CHO-CD38 cells, …); assay: flow cytometry on CHO-CD38 cells, anti-human IgG-FITC detection
[7] = biological target: T1, human CD38 on cells (CHO-CD38 cells, …); assay: flow cytometry on Daudi-luc cells, anti-human IgG-FITC detection
[8] = biological target: T1, human CD38 on cells (CHO-CD38 cells, …); assay: flow cytometry on CHO-CD38 cells, detection with rabbit anti-human IgG-FITC (Example 4)
[9] = biological target: T1, human CD38 on cells (CHO-CD38 cells, …); assay: cell-based or functional assay; remark: listed apart in the source
[10] = biological target: T1, human CD38 on cells (CHO-CD38 cells, …); assay: cell-based or functional assay; remark: listed apart in the source
[11] = biological target: T3, HA-CD38 (HA-tagged extracellular domain of human CD38, wild type) (human, UniProt P28907 43-300); assay: SPR (Biacore 3000), antibody immobilized on CM-5 chip, HA-CD38 flowed over, 25° C., mean of 3 ± SD
T3 construct: also called HA-tagged CD38; wt human CD38; not shown: HA-tag introduced by the forward PCR primer, after signal peptide SPHMM

[12] = biological target: T2, cynomolgus monkey CD38 (on lymphoid …); assay: flow cytometry on cynomolgus lymphocytes, detection with FITC-labeled rabbit anti-human IgG (Example 11)

Binder | EC50, ADCC of Daudi-luc cells (51Cr release) [1] [mg/L] | EC50, ADCC of fresh MM tumor cells (51Cr release) [1] [mg/L] | EC50, CDC of CD38-CHO cells (PI-positive cells) [2] [mg/L] | EC50, CDC of Daudi-luc cells (PI-positive cells) [2] [mg/L] | cGDPribose production (% of NGD control), 0.03 µg/ml antibody [3] | cGDPribose production (% of NGD control), 0.3 µg/ml antibody [3] | cGDPribose production (% of NGD control), 3 µg/ml antibody [3] | cGDPribose production (% of NGD control), 30 µg/ml antibody [3] | binding result [4] | EC50 [5] [mg/L] | EC50 [6] [mg/L] | EC50 [7] [mg/L] | EC50 (read off the curve) [8] [mg/L] | Log EC50 of lysis (table captioned CDC; the text ties log EC50 values to ADCC of Daudi cells) [9] | EC50 of lysis of CHO-CD38 cells (table captioned ADCC; the text ties these values to CDC) [10] [mg/L] | Ka [11] [M⁻¹] | Kd [11] [nM] | binding result [12]
B1 | 0.0097 | 0.056 | 0.24 | > 90 | 105 % of NGD control | 104 % of NGD control | 100 % of NGD control | 99 % of NGD control | binds | 0.02 | 0.08 | 0.05 | ~0.2 |  |  |  |  | 
B2 |  |  |  |  | 102 % of NGD control | 98 % of NGD control | 66 % of NGD control | 68 % of NGD control |  |  |  |  |  |  |  |  |  | 
B3 | 0.009 | 0.027 | 3.14 | > 90 | 107 % of NGD control | 107 % of NGD control | 100 % of NGD control | 99 % of NGD control |  | 0.56 | 0.54 | 0.26 |  | 1.17 | 4.5 | 1.14e+09 | 0.885 | binds
